Assay results taken from patent US20240409645A1.
Positions count from the first letter of the chain named.

T1: mouse IL-2Rγ (mouse) (UniProt P34902)
T1 sequence (looked up): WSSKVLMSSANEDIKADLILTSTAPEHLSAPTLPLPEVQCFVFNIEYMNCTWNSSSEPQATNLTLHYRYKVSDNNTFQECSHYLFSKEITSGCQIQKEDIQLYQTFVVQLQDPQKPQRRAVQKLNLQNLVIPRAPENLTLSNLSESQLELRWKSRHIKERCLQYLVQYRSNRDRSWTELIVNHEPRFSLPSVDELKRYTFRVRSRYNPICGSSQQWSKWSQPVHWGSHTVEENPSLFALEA

B1: FJ1427_P035MP04D08 (VHH)
VHH: QVQLVESGGGLVQAGESLRLSCAASGPTASRVAVAWFRQVPGKEREFVAVVNRPGTMTKYADSVKGRFTISRDSAKNTVYLQMNSLKPEDTAVYYCAADSVPYGRPYYFQTSAGNYDYWGQGTQVTVSS
B2: FJ1427_P035MP04G09 (VHH)
VHH: B1 VHH with V5Q, E16G, A29F, A35G, V50A, G55A, S74N, Y80D, L86M, N115E
B3: FJ1427_P035MP04H08 (VHH)
VHH: B1 VHH with Q1E
B4: FJ1427_P035MP04A09 (VHH)
VHH: QVQLVESGGGLVQAGGSLRLSCAASGRTFGAVAVGWFRQVPGKEREFVAAINRNGSATKYADSAKGRFTISRDNAESPVYLQMNSLKPEDTAIYYCAADSLPYGRPYYFQTSAGEYDYWGQGTQVTVSS
B5: FJ1427_P035MP04C05 (VHH)
VHH: QVQLVESGGGWVQVGESLRLSCAPSGRTFVSGIMGWFRQAPGKEREFVARIILNNNSTRYTDSVKGRFTISRDSAKDTMYLQMNTLRPEDTAVYYCAARDRYGSGNSLSPSAYDYWGQGTQVTVSS
B6: FJ1427_P035MP04F09 (VHH)
VHH: B5 VHH with S31R, D77N, Y80W, N84D, T85S
B7: FJ1427_P035MP04H09 (VHH)
VHH: B5 VHH with Q1E, D77N
B8: FJ1427_P035MP04B07 (VHH)
VHH: B5 VHH with Q1E, A40T, D77N, M79L
B9: FJ1427_P035MP04D09 (VHH)
VHH: B5 VHH with S31R, N55S, T61I, D77N, T85S
B10: FJ1427_P035MP04G08 (VHH)
VHH: B5 VHH with D77N, N84D, T85S
B11: FJ1427_P035MP04F10 (VHH)
VHH: B5 VHH with V2L, A23V, L53S, D77N
B12: FJ1427_P035MP04C10 (VHH)
VHH: B5 VHH with V5Q, A23V, D77N
B13: FJ1427_P035MP04G07 (VHH)
VHH: B5 VHH with D77N
B14: FJ1427_P035MP04B10 (VHH)
VHH: B5 VHH with Q1E, T61I, D77N, N84D, T85S, S126L
B15: FJ1427_P035MP04B06 (VHH)
VHH: B5 VHH with V2L, A23V, D77N
B16: FJ1427_P035MP04A10 (VHH)
VHH: B5 VHH with Q1E, D77N
B17: FJ1427_P035MP04A07 (VHH)
VHH: B5 VHH with V2L, T61I, D77N, N84D, T85S

The binders below were run against T1, mouse IL-2Rγ (mouse) (assay: PE binding ELISA, periplasmic extract on coated protein).

OD (PE binding ELISA) [OD450 nm]	Binder
0.048	B1
0.05	B2
0.053	B3
0.049	B4
0.047	B5
0.049	B6
0.05	B7
0.047	B8
0.048	B9
0.049	B10
0.048	B11
0.047	B12
0.049	B13
0.047	B14
0.048	B15
0.048	B16
0.049	B17
